Here are results for two substances from paper doi:10.1101/2023.05.02.539095 (bioRxiv, 2023).

As a reminder, the stoichiometry N is the number of molecules, sites or subunits per partner or assembly.

Assay [1] has as its target 0317ΔNH (MSMEG_0317 lacking the N-terminal TM helix) (M. smegmatis). Description: SEC-MALS. On the technique in general: In gel filtration, larger molecules generally elute earlier.
For assay [2], the target named is 0317ΔCD (MSMEG_0317 lacking the C-terminal cytoplasmic domain) (M. smegmatis). Description: SEC-MALS.

For the substance “0317ΔNH (MSMEG_0317 lacking the N-terminal TM helix) (domain or fragment)”, the stoichiometry N in assay [1] was found to be 2.

As for “0317ΔCD (MSMEG_0317 lacking the C-terminal cytoplasmic domain) (domain or fragment)”, the stoichiometry N in assay [2] came to 2.
